Legend:
[1] = molecular target: P66 G175V (site-directed mutant, B. burgdorferi B31 A3) (Borrelia burgdorferi (strain B31 A3))
[2] = molecular target: P66 G175V (site-directed mutant, B. burgdorferi B31 A3) (Borrelia burgdorferi (strain B31 A3)); experiment: native gel or EMSA; BN-PAGE of outer membrane proteins (B-fractions) of the B. burgdorferi strains, immunoblot probed with rabbit polyclonal antibody D8713 against P66
[3] = molecular target: P66 G584R (site-directed mutant, B. burgdorferi B31 A3) (Borrelia burgdorferi (strain B31 A3))
[4] = molecular target: P66 G584R (site-directed mutant, B. burgdorferi B31 A3) (Borrelia burgdorferi (strain B31 A3)); experiment: native gel or EMSA; BN-PAGE of outer membrane proteins (B-fractions) of the B. burgdorferi strains, immunoblot probed with rabbit polyclonal antibody D8713 against P66
[5] = molecular target: P66 T176M (site-directed mutant, B. burgdorferi B31 A3) (Borrelia burgdorferi (strain B31 A3))
[6] = molecular target: P66 T176M (site-directed mutant, B. burgdorferi B31 A3) (Borrelia burgdorferi (strain B31 A3)); experiment: native gel or EMSA; BN-PAGE of outer membrane proteins (B-fractions) of the B. burgdorferi strains, immunoblot probed with rabbit polyclonal antibody D8713 against P66

## P66 G175V (site-directed mutant, B. burgdorferi B31 A3) (natural protein)
[1]
  black lipid bilayer (BLB) channel conductance of B-fractions in 1 M KCl, 20 mV: < 5 nS
[2]
  stoichiometry N: 3

## P66 G584R (site-directed mutant, B. burgdorferi B31 A3) (natural protein)
[3]
  black lipid bilayer (BLB) channel conductance of B-fractions in 1 M KCl, 20 mV: < 5 nS
[4]
  stoichiometry N: 3

## P66 T176M (site-directed mutant, B. burgdorferi B31 A3) (natural protein)
[5]
  black lipid bilayer (BLB) channel conductance of B-fractions in 1 M KCl, 20 mV: < 5 nS
[6]
  stoichiometry N: 3
